Laboratory results reported in patent US20200024330A1.

Key:
Test in all cases: cell-based or functional assay
[1] = molecular target: HIV-1 Env of isolate 92BR020 (HIV-1)
[2] = molecular target: HIV-1 Env of isolate 94UG103 (HIV-1)
[3] = molecular target: HIV-1 Env of isolate JR-CSF (HIV-1) (UniProt P20871)
[4] = molecular target: HIV-1 Env of isolate MGRM-C-026 (HIV-1)
[5] = molecular target: HIV-1 92TH021 Env (on pseudovirus) (HIV-1)
[6] = molecular target: HIV-1 92UG005 Env (on pseudovirus) (HIV-1)
[7] = molecular target: HIV-1 92UG024 Env (on pseudovirus) (HIV-1)
[8] = molecular target: HIV-1 93IN905 Env (on pseudovirus) (HIV-1)
[9] = molecular target: HIV-1 93UG077 Env (on pseudovirus) (HIV-1)
[10] = molecular target: HIV-1 94UG103 Env (on pseudovirus) (HIV-1)
[11] = molecular target: HIV-1 APV13 Env (on pseudovirus) (HIV-1)
[12] = molecular target: HIV-1 APV17 Env (on pseudovirus) (HIV-1)
[13] = molecular target: HIV-1 APV6 Env (on pseudovirus) (HIV-1)
[14] = molecular target: HIV-1 CMU02 Env (on pseudovirus) (HIV-1)
[15] = molecular target: HIV-1 JRCSF Env (on pseudovirus) (HIV-1) (UniProt P20871)
[16] = molecular target: HIV-1 JRFL Env (on pseudovirus) (HIV-1)
[17] = molecular target: HIV-1 MGRM-A-010 Env (on pseudovirus) (HIV-1)
[18] = molecular target: HIV-1 MGRM-AG-005 Env (on pseudovirus) (HIV-1)
[19] = molecular target: HIV-1 MGRM-C-026 Env (on pseudovirus) (HIV-1)
[20] = molecular target: HIV-1 MGRM-C-027 Env (on pseudovirus) (HIV-1)
[21] = molecular target: HIV-1 MGRM-C-028 Env (on pseudovirus) (HIV-1)
[22] = molecular target: HIV-1 MGRM-D-001 Env (on pseudovirus) (HIV-1)
[23] = molecular target: HIV-1 MGRM-D-018 Env (on pseudovirus) (HIV-1)
[24] = molecular target: HIV-1 NL43 Env (on pseudovirus) (HIV-1)
[25] = molecular target: aMLV envelope protein (on pseudovirus, negative control) (aMLV)
[26] = molecular target: panel of HIV-1 pseudoviruses of Table 52

B1: 4869_K15 (antibody, V domains shown)
VH: QVHLQESGPGLVTPSETLSLTCTVSNGSVSGRFWSWIRQSPGRGLEWIGYFSDTDRSEYNPSLRSRLTLSVDRSKNQLSLRLKSVTAADSATYYCARAQQGKRIYGIVSFGEFFYYYYMDAWGKGTPVTVSS
VL: SLNPLSLAPGATAKIPCGERSRGSRAVQWYQQKPGQAPTLIIYNNQDRPAGVSERFSGNPDVAIGVTATLTISRVEVGDEADYYCHYWDSRSPISWIFGGGTQLTVL
Question: Which Primary Neutralization Index (B cell culture well 4869 K15) [1] does the source give for B1 here?
Answer: The Primary Neutralization Index (B cell culture well 4869 K15) was 3.9.

Question: And the Primary Neutralization Index (B cell culture well 4869 K15) [2]?
Answer: The Primary Neutralization Index (B cell culture well 4869 K15) was 1.5.

Question: And the Primary Neutralization Index (B cell culture well 4869 K15) [3]?
Answer: Its Primary Neutralization Index (B cell culture well 4869 K15) is 2.1.

Question: And the Primary Neutralization Index (B cell culture well 4869 K15) [4]?
Answer: Its Primary Neutralization Index (B cell culture well 4869 K15) is 104.

B2: PGT-135 (5343_B08; 5344_E16) (antibody, V domains shown)
VH: QLQMQESGPGLVKPSETLSLSCTVSGDSIRGGEWGDKDYHWGWVRHSAGKGLEWIGSIHWRGTTHYKESLRRRVSMSIDTSRNWFSLRLASVTAADTAVYFCARHRHHDVFMLVPIAGWFDVWGPGVQVTVSS
VL: EIVMTQSPDTLSVSPGETVTLSCRASQNINKNLAWYQYKPGQSPRLVIFETYSKIAAFPARFVASGSGTEFTLTINNMQSEDVAVYYCQQYEEWPRTFGQGTKVDIK
Question: B2 was tested. Which IC50 (ug/ml), pseudovirus neutralization [5] did it give?
Answer: The IC50 (ug/ml), pseudovirus neutralization was greater than 10 µg/mL.

Question: And the IC50 (ug/ml), pseudovirus neutralization [6]?
Answer: The IC50 (ug/ml), pseudovirus neutralization was greater than 10 µg/mL.

Question: What about the IC50 (ug/ml), pseudovirus neutralization [7] of the same binder?
Answer: The IC50 (ug/ml), pseudovirus neutralization was 0.0139 µg/mL.

Question: What about the IC50 (ug/ml), pseudovirus neutralization [8] of the same binder?
Answer: Its IC50 (ug/ml), pseudovirus neutralization is 0.0183 µg/mL.

Question: And the IC50 (ug/ml), pseudovirus neutralization [9]?
Answer: The IC50 (ug/ml), pseudovirus neutralization was greater than 10 µg/mL.

Question: What about the IC50 (ug/ml), pseudovirus neutralization [10] of the same binder?
Answer: Its IC50 (ug/ml), pseudovirus neutralization is greater than 10 µg/mL.

Question: What about the IC50 (ug/ml), pseudovirus neutralization [11] of the same binder?
Answer: The IC50 (ug/ml), pseudovirus neutralization was 0.545 µg/mL.

Question: And the IC50 (ug/ml), pseudovirus neutralization [12]?
Answer: Its IC50 (ug/ml), pseudovirus neutralization is greater than 10 µg/mL.

Question: And the IC50 (ug/ml), pseudovirus neutralization [13]?
Answer: The IC50 (ug/ml), pseudovirus neutralization was greater than 10 µg/mL.

Question: And the IC50 (ug/ml), pseudovirus neutralization [14]?
Answer: Its IC50 (ug/ml), pseudovirus neutralization is greater than 10 µg/mL.

Question: And the IC50 (ug/ml), pseudovirus neutralization [15]?
Answer: The IC50 (ug/ml), pseudovirus neutralization was 0.113 µg/mL.

Question: What about the IC50 (ug/ml), pseudovirus neutralization [16] of the same binder?
Answer: The IC50 (ug/ml), pseudovirus neutralization was greater than 10 µg/mL.

Question: And the IC50 (ug/ml), pseudovirus neutralization [17]?
Answer: The IC50 (ug/ml), pseudovirus neutralization was greater than 10 µg/mL.

Question: And the IC50 (ug/ml), pseudovirus neutralization [18]?
Answer: The IC50 (ug/ml), pseudovirus neutralization was greater than 10 µg/mL.

Question: And the IC50 (ug/ml), pseudovirus neutralization [19]?
Answer: The IC50 (ug/ml), pseudovirus neutralization was 0.0123 µg/mL.

Question: And the IC50 (ug/ml), pseudovirus neutralization [20]?
Answer: The IC50 (ug/ml), pseudovirus neutralization was greater than 10 µg/mL.

Question: What about the IC50 (ug/ml), pseudovirus neutralization [21] of the same binder?
Answer: Its IC50 (ug/ml), pseudovirus neutralization is 2.16 µg/mL.

Question: What about the IC50 (ug/ml), pseudovirus neutralization [22] of the same binder?
Answer: Its IC50 (ug/ml), pseudovirus neutralization is greater than 10 µg/mL.

Question: And the IC50 (ug/ml), pseudovirus neutralization [23]?
Answer: Its IC50 (ug/ml), pseudovirus neutralization is 0.0433 µg/mL.

Question: And the IC50 (ug/ml), pseudovirus neutralization [24]?
Answer: Its IC50 (ug/ml), pseudovirus neutralization is 6.79 µg/mL.

Question: What about the IC50 (ug/ml), pseudovirus neutralization [25] of the same binder?
Answer: Its IC50 (ug/ml), pseudovirus neutralization is greater than 10 µg/mL.

Question: And the % neutralized (viruses of the panel) [26]?
Answer: Its % neutralized (viruses of the panel) is 54%.

Question: And the median IC50 (ug/ml), pseudovirus neutralization [26]?
Answer: Its median IC50 (ug/ml), pseudovirus neutralization is 0.11 µg/mL.

B3: PGT-136 (5329_C19; 5366_P21) (antibody, V domains shown)
VH: QLQLQESGPGLVKPSETLSLTCTVSGGSMRGTDWGENDFHYGWIRQSSAKGLEWIGSIHWRGRTTHYKTSFRSRATLSIDTSNNRFSLTFSFVTAADTAVYYCARHKYHDIFRVVPVAGWFDPWGQGLLVTVSS
VL: EIVMTQSPPTLSVSPGETATLSCRASQNVKNNLAWYQLKPGQAPRLLIFDASSRAGGIPDRFSGSGYGTDFTLTVNSVQSEDFGDYFCQQYEEWPRTFGQGTKVDIK
Question: With B3 as the binder, how does the IC50 (ug/ml), pseudovirus neutralization [5] read?
Answer: Its IC50 (ug/ml), pseudovirus neutralization is greater than 10 µg/mL.

Question: What about the IC50 (ug/ml), pseudovirus neutralization [6] of the same binder?
Answer: Its IC50 (ug/ml), pseudovirus neutralization is greater than 10 µg/mL.

Question: And the IC50 (ug/ml), pseudovirus neutralization [7]?
Answer: Its IC50 (ug/ml), pseudovirus neutralization is 0.0915 µg/mL.

Question: What about the IC50 (ug/ml), pseudovirus neutralization [8] of the same binder?
Answer: Its IC50 (ug/ml), pseudovirus neutralization is 0.0135 µg/mL.

Question: What about the IC50 (ug/ml), pseudovirus neutralization [9] of the same binder?
Answer: Its IC50 (ug/ml), pseudovirus neutralization is greater than 10 µg/mL.

Question: And the IC50 (ug/ml), pseudovirus neutralization [10]?
Answer: Its IC50 (ug/ml), pseudovirus neutralization is greater than 10 µg/mL.

Question: And the IC50 (ug/ml), pseudovirus neutralization [11]?
Answer: The IC50 (ug/ml), pseudovirus neutralization was greater than 10 µg/mL.

Question: What about the IC50 (ug/ml), pseudovirus neutralization [12] of the same binder?
Answer: The IC50 (ug/ml), pseudovirus neutralization was greater than 10 µg/mL.

Question: And the IC50 (ug/ml), pseudovirus neutralization [13]?
Answer: The IC50 (ug/ml), pseudovirus neutralization was greater than 10 µg/mL.

Question: And the IC50 (ug/ml), pseudovirus neutralization [14]?
Answer: Its IC50 (ug/ml), pseudovirus neutralization is greater than 10 µg/mL.

Question: What about the IC50 (ug/ml), pseudovirus neutralization [15] of the same binder?
Answer: Its IC50 (ug/ml), pseudovirus neutralization is greater than 10 µg/mL.

Question: What about the IC50 (ug/ml), pseudovirus neutralization [16] of the same binder?
Answer: The IC50 (ug/ml), pseudovirus neutralization was greater than 10 µg/mL.

Question: And the IC50 (ug/ml), pseudovirus neutralization [17]?
Answer: Its IC50 (ug/ml), pseudovirus neutralization is greater than 10 µg/mL.

Question: And the IC50 (ug/ml), pseudovirus neutralization [18]?
Answer: The IC50 (ug/ml), pseudovirus neutralization was greater than 10 µg/mL.

Question: What about the IC50 (ug/ml), pseudovirus neutralization [19] of the same binder?
Answer: Its IC50 (ug/ml), pseudovirus neutralization is 0.0065 µg/mL.

Question: What about the IC50 (ug/ml), pseudovirus neutralization [20] of the same binder?
Answer: Its IC50 (ug/ml), pseudovirus neutralization is greater than 10 µg/mL.

Question: And the IC50 (ug/ml), pseudovirus neutralization [21]?
Answer: Its IC50 (ug/ml), pseudovirus neutralization is greater than 10 µg/mL.

Question: What about the IC50 (ug/ml), pseudovirus neutralization [22] of the same binder?
Answer: The IC50 (ug/ml), pseudovirus neutralization was greater than 10 µg/mL.

Question: What about the IC50 (ug/ml), pseudovirus neutralization [23] of the same binder?
Answer: The IC50 (ug/ml), pseudovirus neutralization was greater than 10 µg/mL.

Question: What about the IC50 (ug/ml), pseudovirus neutralization [24] of the same binder?
Answer: Its IC50 (ug/ml), pseudovirus neutralization is greater than 10 µg/mL.

Question: What about the IC50 (ug/ml), pseudovirus neutralization [25] of the same binder?
Answer: Its IC50 (ug/ml), pseudovirus neutralization is greater than 10 µg/mL.

Question: And the % neutralized (viruses of the panel) [26]?
Answer: Its % neutralized (viruses of the panel) is 18%.

Question: And the median IC50 (ug/ml), pseudovirus neutralization [26]?
Answer: Its median IC50 (ug/ml), pseudovirus neutralization is 0.05 µg/mL.
